Source: the supplement of paper PMC12042874
± gives the uncertainty stated by the source.

Experiment: amyloid nucleation score (Sup35N fusion, yeast selection) (log enrichment); library NNK3; higher = more nucleation; inactive = no reads after selection
Outline: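 Random libraries were run with three technical output replicates. In each, psi-negative yeast expressing Sup35N fused to peptides of 20 random codons were induced 24 hours with 100 μM copper sulfate and grown 7 days at 30°C on medium lacking adenine and uracil, and input and output plasmid inserts were Illumina-sequenced. The nucleation score is the DiMSum log enrichment of output over input reads, centred on the mode score of non-aggregating sequences, and sequences under 100 input reads were excluded.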

**Q.** For SLVLNSMMRTTNKNGNEGYV, which amyloid nucleation score is on record?
**A.** The amyloid nucleation score was “inactive”.

**Q.** Which amyloid nucleation score does the source give for GSKDYQPSYIPWYNFACFKG here?
**A.** Its amyloid nucleation score is -0.594 ± 0.96.

**Q.** With PYAGCIH as the substance, how does the amyloid nucleation score read?
**A.** The amyloid nucleation score was “inactive”.

**Q.** Which amyloid nucleation score does the source give for VATYVPCPCYSMFCAGIC here?
**A.** The amyloid nucleation score was -0.355 ± 0.7.

**Q.** Which amyloid nucleation score does the source give for RNSKWWLYLKSARSCYLGWW here?
**A.** Its amyloid nucleation score is “inactive”.

**Q.** With YFPGGTLDY as the substance, how does the amyloid nucleation score read?
**A.** The amyloid nucleation score was “inactive”.

**Q.** With WLVSRIVHSLVVVIFDKDEG as the substance, how does the amyloid nucleation score read?
**A.** Its amyloid nucleation score is “inactive”.

**Q.** Which amyloid nucleation score does the source give for NRLNGSLILDRHLL here?
**A.** The amyloid nucleation score was “inactive”.

**Q.** With RFKVT as the substance, how does the amyloid nucleation score read?
**A.** Its amyloid nucleation score is “inactive”.

**Q.** For AEVPSFECFTVPVFLRSIAV, which amyloid nucleation score is on record?
**A.** Its amyloid nucleation score is “inactive”.

**Q.** For IQYIMTNLGPDYNRFEYM, which amyloid nucleation score is on record?
**A.** The amyloid nucleation score was “inactive”.

**Q.** Which amyloid nucleation score does the source give for AEGYFRSLSTIRGSLLDLSA here?
**A.** The amyloid nucleation score was “inactive”.

**Q.** For LYSSLCRGWLCRISISTRAP, which amyloid nucleation score is on record?
**A.** The amyloid nucleation score was “inactive”.

**Q.** Which amyloid nucleation score does the source give for VRFCGLLIGQVTWFLAVLEY here?
**A.** The amyloid nucleation score was “inactive”.

**Q.** For ECIGRKRELDLWSAARYAYS, which amyloid nucleation score is on record?
**A.** Its amyloid nucleation score is “inactive”.

**Q.** For QIMILVCCQTGFWSERARRG, which amyloid nucleation score is on record?
**A.** The amyloid nucleation score was 2.98 ± 0.058.

**Q.** Which amyloid nucleation score does the source give for AQKFSIWLCTTICINTDFDF here?
**A.** Its amyloid nucleation score is 2.31 ± 0.06.

**Q.** Which amyloid nucleation score does the source give for WELMCKALGRGRRCWYKCFL here?
**A.** The amyloid nucleation score was “inactive”.

**Q.** For SSDSVNLIRYLYVRPRFPIH, which amyloid nucleation score is on record?
**A.** Its amyloid nucleation score is “inactive”.

**Q.** With MGQRLLLVSANAWD as the substance, how does the amyloid nucleation score read?
**A.** Its amyloid nucleation score is “inactive”.

**Q.** For TSWTGWVRCHIGSSNISALT, which amyloid nucleation score is on record?
**A.** The amyloid nucleation score was “inactive”.

**Q.** Which amyloid nucleation score does the source give for LGTGSLNHST here?
**A.** The amyloid nucleation score was “inactive”.

**Q.** Which amyloid nucleation score does the source give for GSGTGNALLQLGLTSIFTFS here?
**A.** Its amyloid nucleation score is “inactive”.

**Q.** For NACTF, which amyloid nucleation score is on record?
**A.** The amyloid nucleation score was “inactive”.

**Q.** For KYHMFRWGLSC, which amyloid nucleation score is on record?
**A.** The amyloid nucleation score was “inactive”.

**Q.** With TYYRCSSANLSSGRAEVYKY as the substance, how does the amyloid nucleation score read?
**A.** Its amyloid nucleation score is “inactive”.

**Q.** Which amyloid nucleation score does the source give for NLMWL here?
**A.** Its amyloid nucleation score is “inactive”.

**Q.** For LFFSRS, which amyloid nucleation score is on record?
**A.** Its amyloid nucleation score is “inactive”.

**Q.** Which amyloid nucleation score does the source give for RSYARRSTGILAR here?
**A.** Its amyloid nucleation score is -0.112 ± 0.75.

**Q.** For FNFTVSRVPISVMVLQKRRK, which amyloid nucleation score is on record?
**A.** The amyloid nucleation score was 1.18 ± 0.086.

**Q.** For PSKFVHKSDLCDNGYLPCTR, which amyloid nucleation score is on record?
**A.** Its amyloid nucleation score is “inactive”.

**Q.** For MCRLDA, which amyloid nucleation score is on record?
**A.** The amyloid nucleation score was 2.38 ± 0.073.

**Q.** Which amyloid nucleation score does the source give for LEGSKKSDSSLARSWYFFET here?
**A.** The amyloid nucleation score was “inactive”.

**Q.** For QSNFLFLDFANVYSHKQWCL, which amyloid nucleation score is on record?
**A.** Its amyloid nucleation score is 1.71 ± 0.066.

**Q.** For IICGSCPRR, which amyloid nucleation score is on record?
**A.** The amyloid nucleation score was “inactive”.

**Q.** Which amyloid nucleation score does the source give for VTVCRHTPILIKKPM here?
**A.** Its amyloid nucleation score is “inactive”.

**Q.** With SIRDYSFIASSC as the substance, how does the amyloid nucleation score read?
**A.** Its amyloid nucleation score is “inactive”.

**Q.** For DGGCSKIVRQTLWLNPLGNS, which amyloid nucleation score is on record?
**A.** The amyloid nucleation score was “inactive”.

**Q.** With QARIWSSSVGAFSNCHSCRC as the substance, how does the amyloid nucleation score read?
**A.** Its amyloid nucleation score is “inactive”.

**Q.** With SVNFSYASAIPHAQMIQVRV as the substance, how does the amyloid nucleation score read?
**A.** The amyloid nucleation score was “inactive”.

**Q.** For IMPYC, which amyloid nucleation score is on record?
**A.** The amyloid nucleation score was “inactive”.

**Q.** Which amyloid nucleation score does the source give for VWNVQSFQ here?
**A.** Its amyloid nucleation score is “inactive”.

**Q.** Which amyloid nucleation score does the source give for ICDKRWVC here?
**A.** Its amyloid nucleation score is “inactive”.

**Q.** Which amyloid nucleation score does the source give for LVMNNRYLYSRFLLLV here?
**A.** Its amyloid nucleation score is -0.619 ± 0.73.

**Q.** With NRWTIPCFCGRKL as the substance, how does the amyloid nucleation score read?
**A.** The amyloid nucleation score was 1.12 ± 0.089.

**Q.** For YVNLHPMLATAAIYVNSSAG, which amyloid nucleation score is on record?
**A.** The amyloid nucleation score was “inactive”.

**Q.** For YCYRYGWYHMNEDRIWDVRL, which amyloid nucleation score is on record?
**A.** Its amyloid nucleation score is “inactive”.

**Q.** Which amyloid nucleation score does the source give for WLRLSL here?
**A.** Its amyloid nucleation score is “inactive”.

**Q.** With CEHCMYNRKPR as the substance, how does the amyloid nucleation score read?
**A.** The amyloid nucleation score was “inactive”.

**Q.** For VRAPTYVGAWSPGEFNYRSD, which amyloid nucleation score is on record?
**A.** Its amyloid nucleation score is “inactive”.

**Q.** For PFKFFW, which amyloid nucleation score is on record?
**A.** The amyloid nucleation score was “inactive”.

**Q.** Which amyloid nucleation score does the source give for FFIYVQTGPS here?
**A.** Its amyloid nucleation score is -0.922 ± 1.5.

**Q.** For YLIDVGL, which amyloid nucleation score is on record?
**A.** Its amyloid nucleation score is “inactive”.

**Q.** Which amyloid nucleation score does the source give for LMCDWGVY here?
**A.** Its amyloid nucleation score is -0.175 ± 0.85.

**Q.** Which amyloid nucleation score does the source give for KLAKHH here?
**A.** The amyloid nucleation score was “inactive”.

**Q.** Which amyloid nucleation score does the source give for SASKKLTAFALVVFLRV here?
**A.** The amyloid nucleation score was “inactive”.

**Q.** Which amyloid nucleation score does the source give for VRLTLIRSLRARRDGEDSKM here?
**A.** The amyloid nucleation score was “inactive”.

**Q.** With KRWGEPYRMIVGYMVRYMVT as the substance, how does the amyloid nucleation score read?
**A.** The amyloid nucleation score was 2 ± 0.089.

**Q.** For LVGTRRLSSYRHRFKWITIG, which amyloid nucleation score is on record?
**A.** Its amyloid nucleation score is “inactive”.

**Q.** With YRNMFQPRRNEAARQQLSST as the substance, how does the amyloid nucleation score read?
**A.** The amyloid nucleation score was “inactive”.

**Q.** For VIRRYCAGARHYSVLEIMRE, which amyloid nucleation score is on record?
**A.** Its amyloid nucleation score is “inactive”.

**Q.** For GVSYMNCTHWTL, which amyloid nucleation score is on record?
**A.** Its amyloid nucleation score is “inactive”.

**Q.** With RFGSVCPDL as the substance, how does the amyloid nucleation score read?
**A.** The amyloid nucleation score was “inactive”.

**Q.** With RICSQMLFFRYESRHFWSFV as the substance, how does the amyloid nucleation score read?
**A.** The amyloid nucleation score was “inactive”.

**Q.** For GKVVVN, which amyloid nucleation score is on record?
**A.** The amyloid nucleation score was “inactive”.

**Q.** For CRVRGAVRSLLHTVFKVDWV, which amyloid nucleation score is on record?
**A.** Its amyloid nucleation score is “inactive”.

**Q.** For VLIITLMYMYATFLSFYKPQ, which amyloid nucleation score is on record?
**A.** Its amyloid nucleation score is 2.59 ± 0.085.

**Q.** For CWDYWACGQGTA, which amyloid nucleation score is on record?
**A.** Its amyloid nucleation score is “inactive”.

**Q.** Which amyloid nucleation score does the source give for FIWIIMVGNNVPNT here?
**A.** The amyloid nucleation score was 2.06 ± 0.093.

**Q.** With HFGQCSVMMCDAWGMSDQGP as the substance, how does the amyloid nucleation score read?
**A.** The amyloid nucleation score was “inactive”.

**Q.** For GYLLVVW, which amyloid nucleation score is on record?
**A.** The amyloid nucleation score was “inactive”.

**Q.** Which amyloid nucleation score does the source give for YVWMKGHNHYFFESMDVYLM here?
**A.** Its amyloid nucleation score is “inactive”.

**Q.** For VGDHDPSRFCQDNLCLSRCL, which amyloid nucleation score is on record?
**A.** The amyloid nucleation score was “inactive”.

**Q.** Which amyloid nucleation score does the source give for LLTMHWVREWSDGLYCKGKL here?
**A.** Its amyloid nucleation score is “inactive”.

**Q.** With FHYVCFTFDSKFVGKLSYGS as the substance, how does the amyloid nucleation score read?
**A.** The amyloid nucleation score was 1.61 ± 0.1.

**Q.** With SYPGQLRSPVSV as the substance, how does the amyloid nucleation score read?
**A.** Its amyloid nucleation score is “inactive”.

**Q.** For LLHHFFAVFDSARETKWDWD, which amyloid nucleation score is on record?
**A.** The amyloid nucleation score was 0.247 ± 0.34.

**Q.** Which amyloid nucleation score does the source give for DFLFTNFSNSDLRGILCQSF here?
**A.** The amyloid nucleation score was “inactive”.

**Q.** With MWLSTVDRHHINSQALENVD as the substance, how does the amyloid nucleation score read?
**A.** The amyloid nucleation score was “inactive”.

**Q.** Which amyloid nucleation score does the source give for WKTRHRVEVWASFLLSYQTG here?
**A.** The amyloid nucleation score was -0.551 ± 0.62.

**Q.** With KSWNGQMYCVASGKQKTIMY as the substance, how does the amyloid nucleation score read?
**A.** The amyloid nucleation score was “inactive”.

**Q.** Which amyloid nucleation score does the source give for AINDMRPVKSRGGVVELYML here?
**A.** The amyloid nucleation score was “inactive”.
